Test results from the supplement of paper PMC10126150.
± gives the standard deviation of the averaged measurements.

The sequences below were run on ATP (assay: switch fluorescence ratio, 500 uM ATP over buffer (Cy3 cluster intensity, sum of 5 cycles each) (fold (ratio)); higher = stronger signal-on switching upon ATP binding; sequences stand for … in TCGTCGGCAGCGTCAGATGTGTATAAGAGACAGTTTTTTTTTTTTTTTTTTTTTTTTT…TC). Details: aptamer strand: ATP DNA aptamer (quencher-CACCTGGGGGAGTATTGCGGAGGAAGG + anchor), 100 nM annealed; ATP concentration: 500 uM.
In short: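 The fluorescence ratio divides summed target-cycle Cy3 intensity by summed buffer-cycle Cy3 intensity for each cluster and is averaged per switch-domain sequence. Cy3-labelled switching-strand clusters on a modified Illumina MiSeq flow-cell were annealed to 100 nM quencher-labelled ATP aptamer, then imaged in selection buffer and again after 15 min with 500 uM ATP at 22 °C. Five such cycles were run, with NaOH stripping and re-annealing between them, and clusters outside 100-1000 RFU were excluded.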
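Also: ATP exposure 15 min at 22 °C before imaging.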

Sequence	switch fluorescence ratio
GCATCCGAAG	1.274 ± 0.0035
GCATCGCCAT	1.02 ± 0.029
GCATCGTCGG	1.04 ± 0.058
GCATCGTGCG	1.01 ± 0.052
GCATCTAAGC	1.06 ± 0.043
GCATCTCGCG	1.01 ± 0.021
GCATGAAAAC	1.03 ± 0.031
GCATGAGTGC	1.07 ± 0.061
GCATGATAAC	1.04 ± 0.02
GCATGATAAT	1.004 ± 0.0013
GCATGATATG	1.01 ± 0.0088
GCATGCAGGA	1.01 ± 0.02
GCATGCATTG	0.97797 ± 0.0001
GCATGCGCGC	0.984 ± 0.012
GCATGCTGGG	1.04 ± 0.0064
GCATGCTGTC	0.983 ± 0.019
GCATGGCTGC	1.03 ± 0.036
GCATGGCTTT	1.01 ± 0.023
GCATGGGGAT	1.02 ± 0.051
GCATGGGTAG	0.982 ± 0.018
GCATGTCGGA	1.01 ± 0.039
GCATGTGGGC	0.967 ± 0.01
GCATGTGTGG	0.995 ± 0.065
GCATTAAGAT	1.02 ± 0.025
GCATTAAGTG	1 ± 0.024

Sequence	switch fluorescence ratio
GCATTAATGG	1.04 ± 0.051
GCATTAGGAC	1.24 ± 0.018
GCATTAGGTT	1.03 ± 0.019
GCATTATAT	1.03 ± 0.023
GCATTATTAA	1.01 ± 0.032
GCATTCGGAT	1.01 ± 0.014
GCATTGAAGC	0.995 ± 0.011
GCATTGGTTT	0.982 ± 0.011
GCATTGTTTT	0.96 ± 0.038
GCATTTCAGG	0.98822 ± 0.00033
GCATTTGGCT	1.027 ± 0.0064
GCCAAAGGTG	1.72 ± 0.12
GCCAACGGGG	1 ± 0.028
GCCAATTTGC	1.02 ± 0.07
GCCAGATAGG	0.9562 ± 0.0088
GCCAGGGACG	1.02 ± 0.028
GCCAGTATCC	0.997 ± 0.014
GCCAGTTTGC	0.998 ± 0.015
GCCAGTTTGG	0.9916 ± 0.0052
GCCATCAAGA	0.995 ± 0.062
GCCATCGAAT	1 ± 0.021
GCCATGTTGA	1.02 ± 0.0063
GCCATTAGCA	1.022 ± 0.005
GCCATTGAGG	0.9668 ± 0.0031
GCCCATTTCT	1.03 ± 0.039

Sequence	switch fluorescence ratio
GCCCATTTTT	0.978 ± 0.011
GCCCCGGGGG	1.1 ± 0.046
GCCCGATCAC	1.151 ± 0.0086
GCCCGCCACA	1.06 ± 0.041
GCCCGGGGGG	1.03 ± 0.0083
GCCCGGTCGG	0.953 ± 0.017
GCCCGTATGC	1.07 ± 0.011
GCCCTACAAC	0.998 ± 0.012
GCCCTGAGCA	1.01 ± 0.026
GCCCTTGTCA	1.01 ± 0.019
GCCCTTTCGT	1.032 ± 0.0021
GCCCTTTTAC	1.19 ± 0.074
GCCCTTTTTT	1 ± 0.046
GCCGAGCCGG	0.972 ± 0.011
GCCGAGCTCT	0.996 ± 0.024
GCCGATGCTG	0.978 ± 0.042
GCCGATTACG	1.02 ± 0.033
GCCGATTATA	1 ± 0.00097
GCCGCACGGA	1.13 ± 0.045
GCCGCAGCTA	3.05 ± 0.15
GCCGCTATTT	1.43 ± 0.18
GCCGGACAGT	1 ± 0.017
GCCGGATTCG	1.02 ± 0.013
GCCGGATTGA	1.02 ± 0.041
GCCGGCAATT	1.01 ± 0.015

Sequence	switch fluorescence ratio
GCCGGGACTA	1.01 ± 0.024
GCCGGGATTG	0.976 ± 0.029
GCCGGGGGTT	1.2 ± 0.21
GCCGGGTACG	0.992 ± 0.029
GCCGGGTTGA	1.03 ± 0.048
GCCGGTTATC	1 ± 0.017
GCCGGTTTTG	1.01 ± 0.017
GCCGTCTTGA	1.01 ± 0.041
GCCGTGTAGA	1.05 ± 0.021
GCCTACAACA	1.02 ± 0.029
GCCTACATTA	0.997 ± 0.022
GCCTCATAGG	0.994 ± 0.019
GCCTCGGGGG	0.953 ± 0.021
GCCTGAAAGG	0.993 ± 0.022
GCCTGAGCTG	1.024 ± 0.0094
GCCTGGGGGC	0.967 ± 0.019
GCCTGGTGTC	1.27 ± 0.055
GCCTGTATTG	0.982 ± 0.027
GCCTGTGGGG	0.977 ± 0.019
GCCTTAGAGT	1.03 ± 0.051
GCCTTAGCCG	0.972 ± 0.019
GCCTTAGGTG	1.4 ± 0.12
GCCTTGAAGT	1 ± 0.013
GCCTTGATAG	0.981 ± 0.0086
GCCTTGGTGC	1.08 ± 0.018
